Values quoted from earlier work in patent US20250326839A1, “TREATMENT OF DISEASES RELATED TO COLONY-STIMULATING FACTOR 1 RECEPTOR DYSFUNCTION USING TREM2 AGONISTS” (Vigil Neuroscience, Inc., priority 2020, published 2025).

T1: TREM2 (Homo sapiens, UniProt Q9NZC2)
T1 sequence (Q9NZC2 19-230): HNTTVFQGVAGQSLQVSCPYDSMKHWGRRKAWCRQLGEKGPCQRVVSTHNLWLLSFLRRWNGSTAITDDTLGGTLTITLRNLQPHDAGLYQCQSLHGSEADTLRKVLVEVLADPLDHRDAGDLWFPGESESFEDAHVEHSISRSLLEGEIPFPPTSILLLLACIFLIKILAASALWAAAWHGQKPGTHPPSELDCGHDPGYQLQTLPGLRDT


Target: T1, TREM2
Details: cited from earlier work; for Binding Signal (fold over 6E7 parental antibody) 1st screen 110 nM or 10 nM: 10 nM Ab concentration (values not marked *)

Molecule | Binding Signal (fold over 6E7 parental antibody) 1st screen 110 nM or 10 nM | Binding Signal (fold over 6E7 parental antibody) 2nd screen 2 nM | Binding Signal (fold over 6E7 parental antibody) 2nd screen 10 nM
V60: 6E7 variant: VH S28H, T58V, F110S; VL N56R, Q89G (antibody, V domains shown) VH: EVQLVQSGAEVKKPGESLKISCKGSGYHFTSYWIAWVRQMPGKGLEWMGIIYPGDSDVRYSPSFQGQVTISADKSISTAYLQWSSLKASDTAMYFCARQRTFYYDSSDYSDYWGQGTLVTVSS VL: DIQMTQSPSSVSASVGDRVTITCRASQGISSWLAWYQQKPGKAPKLLIYAASSLQRGVPSRFSGSGSGTDFTLTISSLQPEDFATYFCGQADSFPRTFGQGTKLEIK | 3.26 fold over 6E7 parental antibod | 3.35 fold over 6E7 parental antibod | 3.63 fold over 6E7 parental antibod
V63: 6E7 variant: VH T30R, Q99S; VL N56R, S93R (antibody, V domains shown) VH: EVQLVQSGAEVKKPGESLKISCKGSGYSFRSYWIAWVRQMPGKGLEWMGIIYPGDSDTRYSPSFQGQVTISADKSISTAYLQWSSLKASDTAMYFCARSRTFYYDSSDYFDYWGQGTLVTVSS VL: DIQMTQSPSSVSASVGDRVTITCRASQGISSWLAWYQQKPGKAPKLLIYAASSLQRGVPSRFSGSGSGTDFTLTISSLQPEDFATYFCQQADRFPRTFGQGTKLEIK | 3.76 fold over 6E7 parental antibod | 4.91 fold over 6E7 parental antibod | 3.71 fold over 6E7 parental antibod
V72: 6E7 variant: VH A35G, Q99G; VL Q55V, F94Y (antibody, V domains shown) VH: EVQLVQSGAEVKKPGESLKISCKGSGYSFTSYWIGWVRQMPGKGLEWMGIIYPGDSDTRYSPSFQGQVTISADKSISTAYLQWSSLKASDTAMYFCARGRTFYYDSSDYFDYWGQGTLVTVSS VL: DIQMTQSPSSVSASVGDRVTITCRASQGISSWLAWYQQKPGKAPKLLIYAASSLVNGVPSRFSGSGSGTDFTLTISSLQPEDFATYFCQQADSYPRTFGQGTKLEIK | 3.64 fold over 6E7 parental antibod | 2.50 fold over 6E7 parental antibod | 4.01 fold over 6E7 parental antibod
V61: 6E7 variant: VH T30S, S61N, Q99G; VL Q55V, F94L (antibody, V domains shown) VH: EVQLVQSGAEVKKPGESLKISCKGSGYSFSSYWIAWVRQMPGKGLEWMGIIYPGDSDTRYNPSFQGQVTISADKSISTAYLQWSSLKASDTAMYFCARGRTFYYDSSDYFDYWGQGTLVTVSS VL: DIQMTQSPSSVSASVGDRVTITCRASQGISSWLAWYQQKPGKAPKLLIYAASSLVNGVPSRFSGSGSGTDFTLTISSLQPEDFATYFCQQADSLPRTFGQGTKLEIK | 5.08 fold over 6E7 parental antibod | 3.63 fold over 6E7 parental antibod | 5.22 fold over 6E7 parental antibod
V75: 6E7 variant: VH Q99G; VL N56A, F94Y (antibody, V domains shown) VH: EVQLVQSGAEVKKPGESLKISCKGSGYSFTSYWIAWVRQMPGKGLEWMGIIYPGDSDTRYSPSFQGQVTISADKSISTAYLQWSSLKASDTAMYFCARGRTFYYDSSDYFDYWGQGTLVTVSS VL: DIQMTQSPSSVSASVGDRVTITCRASQGISSWLAWYQQKPGKAPKLLIYAASSLQAGVPSRFSGSGSGTDFTLTISSLQPEDFATYFCQQADSYPRTFGQGTKLEIK | 4.64 fold over 6E7 parental antibod | 3.74 fold over 6E7 parental antibod | 4.52 fold over 6E7 parental antibod
V76: 6E7 variant: VH T30G, S63E, F110S; VL N56K (antibody, V domains shown) VH: EVQLVQSGAEVKKPGESLKISCKGSGYSFGSYWIAWVRQMPGKGLEWMGIIYPGDSDTRYSPEFQGQVTISADKSISTAYLQWSSLKASDTAMYFCARQRTFYYDSSDYSDYWGQGTLVTVSS VL: DIQMTQSPSSVSASVGDRVTITCRASQGISSWLAWYQQKPGKAPKLLIYAASSLQKGVPSRFSGSGSGRDFTLTISSLQPEDFATYFCQQADSFPRTFGQGTKLEIK | 4.57 fold over 6E7 parental antibod | 4.34 fold over 6E7 parental antibod | 4.93 fold over 6E7 parental antibod
V85: 6E7 variant: VH T30R, I50T, Q99S; VL L54R (antibody, V domains shown) VH: EVQLVQSGAEVKKPGESLKISCKGSGYSFRSYWIAWVRQMPGKGLEWMGTIYPGDSDTRYSPSFQGQVTISADKSISTAYLQWSSLKASDTAMYFCARSRTFYYDSSDYFDYWGQGTLVTVSS VL: DIQMTQSPSSVSASVGDRVTITCRASQGISSWLAWYQQKPGKAPKLLIYAASSRQNGVPSRFSGSGSGTDFTLTISSLQPEDFATYFCQQADSFPRTFGQGTKLEIK | 5.41 fold over 6E7 parental antibod | 5.41 fold over 6E7 parental antibod | 5.37 fold over 6E7 parental antibod
V73: 6E7 variant: VH T30G, S63G, Q99G; VL L54R, F94Y (antibody, V domains shown) VH: EVQLVQSGAEVKKPGESLKISCKGSGYSFGSYWIAWVRQMPGKGLEWMGIIYPGDSDTRYSPGFQGQVTISADKSISTAYLQWSSLKASDTAMYFCARGRTFYYDSSDYFDYWGQGTLVTVSS VL: DIQMTQSPSSVSASVGDRVTITCRASQGISSWLAWYQQKPGKAPKLLIYAASSRQNGVPSRFSGSGSGTDFTLTISSLQPEDFATYFCQQADSYPRTFGQGTKLEIK | 5.12 fold over 6E7 parental antibod | 4.17 fold over 6E7 parental antibod | 5.44 fold over 6E7 parental antibod
V74: 6E7 variant: VH T30A, T58V, Q99G; VL N56L (antibody, V domains shown) VH: EVQLVQSGAEVKKPGESLKISCKGSGYSFASYWIAWVRQMPGKGLEWMGIIYPGDSDVRYSPSFQGQVTISADKSISTAYLQWSSLKASDTAMYFCARGRTFYYDSSDYFDYWGQGTLVTVSS VL: DIQMTQSPSSVSASVGDRVTITCRASQGISSWLAWYQQKPGKAPKLLIYAASSLQLGVPSRFSGSGSGTDFTLTISSLQPEDFATYFCQQADSFPRTFGQGTKLEIK | 3.94 fold over 6E7 parental antibod | 2.54 fold over 6E7 parental antibod | 4.01 fold over 6E7 parental antibod
V84: 6E7 variant: VH S28G, F110S; VL A50G (antibody, V domains shown) VH: EVQLVQSGAEVKKPGESLKISCKGSGYGFTSYWIAWVRQMPGKGLEWMGIIYPGDSDTRYSPSFQGQVTISADKSISTAYLQWSSLKASDTAMYFCARQRTFYYDSSDYSDYWGQGTLVTVSS VL: DIQMTQSPSSVSASVGDRVTITCRASQGISSWLAWYQQKPGKAPKLLIYGASSLQNGVPSRFSGSGSGTDFTLTISSLQPEDFATYFCQQADSFPRTFGQGTKLEIK | 1.44 fold over 6E7 parental antibod | 1.45 fold over 6E7 parental antibod | 1.62 fold over 6E7 parental antibod
V64: 6E7 variant: VH T30Q, Q99G; VL Q55A, F94Y (antibody, V domains shown) VH: EVQLVQSGAEVKKPGESLKISCKGSGYSFQSYWIAWVRQMPGKGLEWMGIIYPGDSDTRYSPSFQGQVTISADKSISTAYLQWSSLKASDTAMYFCARGRTFYYDSSDYFDYWGQGTLVTVSS VL: DIQMTQSPSSVSASVGDRVTITCRASQGISSWLAWYQQKPGKAPKLLIYAASSLANGVPSRFSGSGSGTDFTLTISSLQPEDFATYFCQQADSYPRTFGQGTKLEIK | 5.41 fold over 6E7 parental antibod | 4.88 fold over 6E7 parental antibod | 5.48 fold over 6E7 parental antibod
V62: 6E7 variant: VH T30G, S61A, D108G; VL N56R, Q89G (antibody, V domains shown) VH: EVQLVQSGAEVKKPGESLKISCKGSGYSFGSYWIAWVRQMPGKGLEWMGIIYPGDSDTRYAPSFQGQVTISADKSISTAYLQWSSLKASDTAMYFCARQRTFYYDSSGYFDYWGQGTLVTVSS VL: DIQMTQSPSSVSASVGDRVTITCRASQGISSWLAWYQQKPGKAPKLLIYAASSLQRGVPSRFSGSGSGTDFTLTISSLQPEDFATYFCGQADSFPRTFGQGTKLEIK | 2.49 fold over 6E7 parental antibod | 1.87 fold over 6E7 parental antibod | 2.89 fold over 6E7 parental antibod
